The source of these data is paper PMC5861428.

A word on the Kd: it is a measure of binding affinity in units of concentration. Higher therefore signals weaker binding.

Data set [1] relates to Fab clone 6 (synthetic), PDB:6B14_1+PDB:6B3K_2. Description: filter binding.
Data set [2] relates to Fab clone 10 (Fab 10) (synthetic), PDB:6B14_1+PDB:6B3K_2. Briefly: filter binding.
Data set [3] concerns Fab clone 17 (synthetic), PDB:6B14_1+PDB:6B3K_2. Description: filter binding.
In data set [4] the test system is Fab clone 15 (synthetic), PDB:6B14_1+PDB:6B3K_2. Briefly: filter binding.
Data set [5] relates to Fab clone 12 (synthetic), PDB:6B14_1+PDB:6B3K_2. Briefly: filter binding.
The test system of data set [6] is Fab clone 9 (synthetic), PDB:6B14_1+PDB:6B3K_2. Description: filter binding.
Data set [7] deals with Fab clone 4 (synthetic), PDB:6B14_1+PDB:6B3K_2. Briefly: filter binding.
The subject of data set [8] is Fab clone 5 (synthetic), PDB:6B14_1+PDB:6B3K_2. Description: filter binding.
Data set [9] concerns Fab clone 14 (synthetic), PDB:6B14_1+PDB:6B3K_2. Briefly: filter binding.
For data set [10], the system named is Fab BL3-6 S97N (synthetic), PDB:6B14_1+PDB:6B14_2. Description: filter binding.
For data set [11], the system named is Fab clone 13 (synthetic), PDB:6B14_1+PDB:6B3K_2. Briefly: filter binding.
Data set [12] has as its system Fab clone 3 (Fab 3) (synthetic), PDB:6B14_1+PDB:6B3K_2. Description: filter binding.
Data set [13] concerns Fab clone 1 (synthetic), PDB:6B14_1+PDB:6B3K_2. Briefly: filter binding.
The subject of data set [14] is Fab clone 11 (synthetic), PDB:6B14_1+PDB:6B3K_2. Description: filter binding.
Data set [15] concerns Fab clone 18 (synthetic), PDB:6B14_1+PDB:6B3K_2. Briefly: filter binding.
The test system of data set [16] is Fab clone 2 (synthetic), PDB:6B14_1+PDB:6B3K_2. Briefly: filter binding.
Data set [17] concerns Fab BL3-6 (synthetic (humanized Fab4D5 framework phage library)), PDB:6B14_1+PDB:6B3K_2. Briefly: filter binding.
For data set [18] the test system is unchanged. Description: hydroxyl-radical footprinting.

Turning to “GGCGACCAUGGAAACACCAUGGUCGC [WT-RNA HP (WT BL3-6 HP)]”, the Kd in data set [1] was determined as 52 nM; in [2], 28 nM; in data set [3], 21 nM; in [4] it was 17 nM; in [5] it was 17 nM; in data set [6], 67 nM. Also, the Kd in data set [7] came out at 28 nM; in data set [8], 28 nM; in data set [9], 58 nM; in [10], 13 nM; in [11], 25 nM; in data set [12], 25 nM. Moreover, the Kd worked out at 29 nM in data set [13], 13 nM in [14] and 22 nM in data set [15].

“GUCCAGUAGGAACACUAUACUACUGGAUAAUCAAAGACAAAUCUGCCCGAAGGGCUUGAGAACAUCGAAACACGAUGCAGAGGUGGCAGCCUCCGGUGGGUUAAAACCCAACGUUCUCAACAAUAGUGA [WT-BLP]”: the Kd in data set [1] was 54 nM; in data set [2], 30 nM; in data set [3], 42 nM; in data set [4], 34 nM; in data set [16], 50 nM; in data set [5] it was 37 nM. The dissociation constant Kd in data set [6] was 66 nM; in [7] it was 29 nM; in data set [8], 20 nM; in data set [9], 45 nM; in data set [17], 120 nM; in data set [10], 5 nM. The Kd came to 36 nM in data set [11]; 28 nM in data set [12]; 26 nM in [13]; 37 nM in data set [14]; 51 nM in data set [15].

For “UGCGACCAUGGUGAGACCCGCCAUGGUCGC [N9RNA1 HP (AM HP)]”, the Kd in data set [18] is 30 nM; in data set [1], 7 nM; in data set [2], 9 nM; in data set [3] it was 8 nM; in data set [4], 10 nM; in data set [16] it was 10 nM. The Kd in data set [5] is 7 nM; in data set [6], 13 nM; in data set [7], 11 nM; in data set [8], 8 nM; in [10], 9 nM; in data set [11] it was 11 nM. For the same sequence, the Kd in data set [12] came out at 9 nM; in data set [13] it was 11 nM; in data set [14] it was 9 nM; in data set [15] it was 9 nM.
